According to patent publication US9347942B2, “Ultrasensitive cell based sensors and uses thereof” (CANVAX BIOTECH SL, priority 2010, dated 2016):
FAM = fluorophore of the FRET substrate

Tests used:
human granzyme B [1] = molecular target: T1, human granzyme B (Homo sapiens, UniProt P10144); assay: Direct detection of secreted granzyme B with peptide substrates (Example 10); type: biochemical; details: for signal to background: ionomycin 10 uM
T1 construct: expressed in transfected cells; host or cells: supernatant of RBL-2H3 stably transfected with human granzyme B, treated with ionomycin
Protocol: Human granzyme B was used as a model enzyme. […] Cleavage of FAM-TAMRA labelled peptide was detected by fluorescence using excitation at 485 nm and emission at 535 nm and labelled peptide at 1 uM final concentration.
For each substrate the exocytosis of 50.000, 25.000, 12.500, 6.250, 3.125, 1560, 780 and 390 cells was analysed. Cells were seeded the night before experiment at the above densities in 96 well plates using 100 uL of complete cell culture medium per well. The day of experiment cells were washed with HBSS buffer and exocytosis was initiated by addition of ionomycin at 10 uM final concentration in HBSS buffer and incubation for 60 minutes at 37 Celsius degrees. Controls of cells treated with HBSS buffer only were included for basal release determination. Five replicas of each cell density for each substrate were seeded. Supernatant from cells were centrifuged at 400 g for 5 minutes and used for fluorescence determination in 96 well plates. Released AMC was measured by excitation at 360 nm and emission at 460 nm in a BMG Labtech microplate fluorimeter in 96 well microplates while released FAM was measured by excitation at 485 nm and emission at 535 nm in the same reader. Microplates were incubated at 37 Celsius degrees on the reader and were kinetically read at 0, 15, 30, 45 and 60 minutes. Control wells with substrate only in HBSS buffer were included to subtract autofluorescence of substrates to both cells treated with ionomycin and to cells treated with HBSS buffer only. An arbitrary signal to background of about two was selected as sensitivity.

CHRM2 = molecular target: T2, CHRM2 (Homo sapiens, UniProt P08172); assay: Multiplex assay, Sensor B channel (CHRM2 and granzyme B) (Example 14); type: cell-based; details: Condition 9: Sensor A 12500 + Sensor B 5000 cells, IL8 10 uM, no carbachol, granzyme B substrate 1 uM
T2 construct: the entire human GPCR; mouse immunoglobulin kappa signal peptide (N); expressed in transfected cells
T2 sequence (P08172 2-466): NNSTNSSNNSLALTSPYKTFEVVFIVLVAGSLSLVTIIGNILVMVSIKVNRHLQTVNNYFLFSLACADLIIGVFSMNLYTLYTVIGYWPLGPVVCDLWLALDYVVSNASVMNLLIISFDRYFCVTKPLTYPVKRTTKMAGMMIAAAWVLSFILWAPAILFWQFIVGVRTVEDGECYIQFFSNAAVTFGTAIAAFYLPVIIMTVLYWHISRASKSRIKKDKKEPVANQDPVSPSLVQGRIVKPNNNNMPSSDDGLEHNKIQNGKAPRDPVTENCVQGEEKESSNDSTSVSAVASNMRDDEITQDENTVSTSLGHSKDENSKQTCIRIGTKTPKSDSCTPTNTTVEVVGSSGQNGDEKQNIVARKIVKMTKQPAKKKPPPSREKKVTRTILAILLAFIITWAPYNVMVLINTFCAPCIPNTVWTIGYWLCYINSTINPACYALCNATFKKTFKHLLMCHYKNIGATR
Text: (§1) The principle of multiplex reactions is illustrated in FIG. 5. RBL2H3 cells were stably transfected with a pair of a GPCR as exocytosis modulator and a granzyme as a granule stored reporter as described in example 9. Combinations included were: hIL8 receptor (hIL8RA) and human granzyme A (Sensor A) and CHRM2 and granzyme B expressing cells of example #12 (Sensor B). Human IL8 was used as agonist of hll_8R while carbachol was used as CHRM2 agonist. […] As both substrates uses the same pair of fluorophore (FAM) and quencher (TAMRA) only one substrate could be added to reaction vessel for specific detection at 535 nm after excitation at 485 nm. […] Sensors, agonists and substrates were mixed in a total volume of 20 uL of HBSS in a black walled 384 well microplate and the microplate was incubated at 37 Celsius degrees in a BMG-Labtech microplate fluorimeter and read at 0, 15, 30, 45 and 60 minutes.

hIL8 receptor (hIL8RA) = molecular target: T3, hIL8 receptor (hIL8RA) (Homo sapiens, UniProt P25024); assay: Multiplex assay, Sensor A channel (hIL8RA and human granzyme A) (Example 14); type: cell-based; details: for Signal to background at 30 min: granzyme A substrate 1 uM
T3 construct: the entire human GPCR; mouse immunoglobulin kappa signal peptide (N); expressed in transfected cells
T3 sequence (P25024 3-350 limits assumed): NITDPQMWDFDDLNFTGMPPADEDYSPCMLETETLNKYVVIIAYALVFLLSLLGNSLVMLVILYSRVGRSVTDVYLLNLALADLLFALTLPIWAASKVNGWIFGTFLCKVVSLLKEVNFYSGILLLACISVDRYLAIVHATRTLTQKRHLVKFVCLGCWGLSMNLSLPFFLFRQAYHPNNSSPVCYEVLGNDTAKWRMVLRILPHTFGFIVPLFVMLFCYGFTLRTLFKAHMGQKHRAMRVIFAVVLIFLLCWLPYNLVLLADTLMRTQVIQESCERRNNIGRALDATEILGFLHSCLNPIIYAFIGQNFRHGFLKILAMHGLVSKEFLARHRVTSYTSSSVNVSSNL
Text: as §1

RBL-2H3 cells [2] = assay: Ionomycin-induced release of granule stored protease reporters from stable cell lines (Example 5); type: cell-based, Rat; details: stable RBL-2H3, 10 uM ionomycin 1 hour, supernatant equivalent to 100.000 cells, AMC substrate
Text: As either tryptase-like enzymes, chymase-like enzymes, elastase-like enzymes or asp-ase like enzymes are useful for the methods of the present invention we selected human granzyme A (tryptase-like enzyme); human granzyme B (Asp-ase-like enzyme); human chymase (chymase-like enzyme) and human proteinase 3 (elastase-like enzyme) for further examples. Vectors were developed for stable expression of human granzyme A, human granzyme B, human chymase and human proteinase 3 under the control of hCMV-MoMLV5′LTR chimeric promoter. A hygromycin resistance cassette was included in the vector backbone for selection of stable populations of cells. The vector also included an IRES-NGFR cassette cloned downstream of granule stored protease reporter and thus, under the control of hCMV-MoMLV5′LTR promoter for flow cytometry and/or selection by MACS of stable cells expressing either human granzyme A or human granzyme B or human chymase or human proteinase 3. Each vector was individually electroporated using a microporator (Digital Bio Technology, South Korea) into RBL-2H3 and after 48 hours hygromycin at 1500 ug/mL was added to culture for selection. After selection for about 2 weeks cells were analysed by flow cytometry (Guava Technologies, USA) with an antibody against NGFR coupled to FITC. Positive population where magnetically separated by MACS using anti-NGFR-MACS sup.R (Miltenyi Biotec, Germany). Sorted populations were again analysed again by flow cytometry to check the sorting efficiency. Percentage of NGFR positive cells was always higher than 65 percent. Cells were seeded the night before experiment in 24 well microplates at 650.000 cells per well in 800 microliters of complete cell culture medium. Next day cells were washed with HBSS buffer and were treated with 10 uM ionomycin for 1 hour at 37 Celsius degrees in 200 uL of HBSS buffer and after centrifugation at 400 g for 5 minutes supernatants were analysed for activity with specific fluorescent substrates. Controls of cells incubated with HBSS buffer only were included. Fluorescent substrates were: VANR-AMC for granzyme A; PEEI-AMC for human neutrophil elastase; PTSY-AMC for human chymase; VADC-AMC for human proteinase 3 and IEPD-AMC for human granzyme B. Released AMC was measured by excitation at 360 nm and emission at 460 nm in a BMG Labtech microplate fluorimeter in 96 well microplates using 125 microliters of supernatant and 125 microliters of specific substrate at 400 micromol per liter in HBSS buffer. Microplates were incubated at 37 Celsius degrees on the reader and were kinetically read at 0, 15, 30, 45 and 60 minutes. Control wells with substrate only in HBSS buffer were included to subtract autofluorescence of substrates to both cells treated with ionomycin and to cells treated with HBSS buffer only. Autofluorescence of peptide substrates in HBSS buffer was about 3000 while fluorescence of cells treated with HBSS buffer only for 60 minutes at 37 Celsius degrees was about 5000, that is basal release in the absence of exocytosis modulator was about 2000. In contrast, fluorescence of ionomycin-induced release of human granzymes A and B was about 20.000 for a signal to background of 10 when using the supernatant equivalent to 100.000 cells; fluorescence of ionomycin-induced release of human chymase was about 30.000 for a signal to background of 15 when using the supernatant equivalent to 100.000 cells and fluorescence of ionomycin-induced release of human proteinase 3 was about 12.000 for a signal to background of 6 when using the supernatant equivalent to 100.000 cells. Thus, tryptase-like enzymes, chymase-like enzymes, elastase-like enzymes or asp-ase like enzymes can be stably expressed into granules of hemopoyetic cells with professional regulated exocytosis and such granule stored proteases are released by exocytosis modulators to produce sensors with good signal to background ratios using specific AMC-coupled peptide substrates. […]

RBL-2H3 cells [3] = assay: Ionomycin-induced release of granzyme B from different species, stable cell lines (Example 6); type: cell-based, Rat; details: 100.000 cells per well, 10 uM ionomycin 1 hour, IEPD-AMC
Text: This experiment was designed to test if granule stored protease reporters from other species different from human could be used for the methods of the present invention. As an example we selected granzyme B from different species. Vectors were developed for expression of human, rat, horse and chimpanzee granzyme B and RBL-2H3 cells were individually transfected with the plasmids comprising the chimeric promoter of hCMV-MoMLV5′LTR-GranzymeB-IRES-NGFR with hygromycin resistance for stable transfections. Each vector was individually electroporated using a microporator (Digital Bio Technology, South Korea) into RBL-2H3 and after 48 hours hygromycin at 1500 ug/ml_was added to culture for selection. After selection for about 2 weeks cells were analysed by flow cytometry (Guava Technologies, USA) with an antibody against NGFR coupled to FITC. Positive population where magnetically separated by MACS using anti-NGFR-MACS sup.R (Miltenyi Biotec, Germany). Sorted populations were again analysed again by flow cytometry to check the sorting efficiency. Percentage of NGFR positive cells was always higher than 65 percent. Cells were seeded the night before experiment in 96 well microplates at 100.000 cells per well in 100 microliters of medium. Next day cells were washed with BSS buffer and were treated with 10 uM ionomycin for 1 hour at 37 Celsius degrees in 105 uL of HBSS buffer and after centrifugation at 400 g for 5 minutes supernatants were analysed for activity with specific fluorescent substrates. Controls of cells incubated with HBSS buffer only were included. Fluorescent substrate was IEPD-AMC for all granzymes B tested. Released AMC was measured by excitation at 360 nm and emission at 460 nm in a BMG Labtech microplate fluorimeter in 96 well microplates using 105 microliters of supernatant and 145 microliters of specific substrate at 345 micromol per liter in HBSS buffer. Microplates were incubated at 37 Celsius degrees on the reader and were kinetically read at 0, 15, 30, 45 and 60 minutes. Control wells with substrate only in HBSS buffer were included to subtract autofluorescence of substrates to both cells treated with ionomycin and to cells treated with HBSS buffer only.

human granzyme B [4] = molecular target: T1, human granzyme B; assay: Procaspase-3 zymogen activation by secreted granzyme B, DEVD-AMC readout (Example 11); type: biochemical
Text: As a model we selected human granzyme B. A human granzyme B activated-zymogen was developed from human native unmodified procaspase-3 (huCasp3) and from a mutated human procaspase-3 (mut-huCasp3) where the amino acids from 172 to 179 has been changed from […]to […] that is Threonine at 174 has been mutated to Proline because IEPD is a better granzyme B substrate than IETD and serine at 176 has been mutated to valine, glycine at 177 has been mutated to leucine, valine at 178 has been mutated to methionine and aspartic acid at 179 has been mutated to glutamic acid in order to both improve cleavage efficiency by human granzyme B and to reduce autoactivation of procaspase-3. cDNA from both variants of human pro-caspase-3 comprising amino acids from Serine at 29 to Aspartic acid at 192 were cloned into pET43a+ vector from Novagen. After sequencing expression vectors were transformed into BL21 DE3pLys E. coli strain for protein expression. Each protein was cloned with a polyhistidine tag at C-terminal end for purification. Human native procaspase-3 (huCasp3) was induced for only 30 minutes to prevent autoactivation, while mutated procaspase-3 (mut-huCasp3) was induced both for 30 minutes and for 2 hours. DEVD-AMC substrate was used for detection of active caspase-3 with excitation at 360 nm and emission at 460 nm. A supernatant equivalent to 15.000 RBL-2H3 stably transfected with human granzyme B treated with 10 uM ionomycin for 60 minutes was used for zymogen activation. Human granzyme B activity of such supernatant when measured with IEPD-AMC produced a signal to background of 2.6 after incubation for 60 minutes at 37 Celsius degrees using a supernatant equivalent to 25.000 cells. Background of fluorescence of DEVD-AMC substrate was 2775 and was subtracted from both granzyme B treated caspase-3 and non-granzyme B treated caspase-3 (caspase-3 only) used as control and all samples were tested by triplicate.

T1 sequence (P10144 21-247): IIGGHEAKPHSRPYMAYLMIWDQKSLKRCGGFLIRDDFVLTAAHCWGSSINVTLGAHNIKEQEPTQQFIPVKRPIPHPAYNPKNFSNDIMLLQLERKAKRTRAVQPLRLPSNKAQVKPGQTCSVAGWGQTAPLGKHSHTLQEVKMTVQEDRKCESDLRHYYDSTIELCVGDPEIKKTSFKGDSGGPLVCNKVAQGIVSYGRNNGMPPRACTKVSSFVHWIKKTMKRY

For “FAM-Ser-Ile-Glu-Pro-Asp-Ser-Gly-Ser-TAMRA ({FAM}-SIEPDSGS-{TAMRA}) [FAM-TAMRA peptide, custom designed FRET based granzyme B substrate]”, the signal to background (human granzyme B [1]; 390 cells) was less than 2, the signal to background (human granzyme B [1]; 780 cells) was 3 and the “times more sensitive for detection of granzyme B than IEPD-AMC peptide” value (human granzyme B [1]; sensitivity taken as 780 cells) was “more than 30 times”.

In the case of IL8: Human IL8 used as agonist of hIL8R, the “Signal to background at 30 min” value (CHRM2) is reported as 0.95, the “Signal to background at 30 min” value (hIL8 receptor (hIL8RA); Condition 2: 12500 cells Sensor A, IL8 10 uM) is reported as 16 and the “Signal to background at 30 min” value (hIL8 receptor (hIL8RA); Condition 5: Sensor A 12500 + Sensor B 5000 cells, IL8 10 uM + carbachol 10 uM) is reported as 12.5. For the same molecule, the “maximal granzyme A activity secreted by sensor A upon IL8, relative to granzyme B activity secreted by sensor B upon carbachol” value (hIL8 receptor (hIL8RA); first experiment, data not shown) was “about 40%”.

In the case of “Human granzyme B: Asp-ase-like serine protease (GZMB, NM_004131) used as granule stored reporter”, the “fluorescence of ionomycin-induced release” value (RBL-2H3 cells [2]) is reported as “about 20.000”, the signal to background (RBL-2H3 cells [2]) is reported as 10 and the “Fluorescence of supernatant from cells treated with ionomycin” value (RBL-2H3 cells [3]) is reported as 20,000. The signal to background (RBL-2H3 cells [3]) was 10.

B1: Native (unmodified) huCasp-3: human native unmodified procaspase-3 zymogen expressed in E. coli with polyhistidine tag (protein, UniProt P42574 1-277, looked up)
pro-form: MENTENSVDSKSIKNLEPKIIHGSESMDSGISLDNSYKMDYPEMGLCIIINNKNFHKSTGMTSRSGTDVDAANLRETFRNLKYEVRNKNDLTREEIVELMRDVSKEDHSKRSSFVCVLLSHGEEGIIFGTNGPVDLKKITNFFRGDRCRSLTGKPKLFIIQACRGTELDCGIETDSGVDDDMACHKIPVEADFLYAYSTAPGYYSWRNSKDGSWFIQSLCAMLKQYADKLEFMHILTRVNRKVATEFESFSFDATFHAKKQIPCIVSMLTKELYFYH
modifications: pro-form polyhistidine tag
notes: human native unmodified procaspase-3 zymogen expressed in E. coli with polyhistidine tag
B1 was tested, and the “times more sensitive than direct detection of secreted granzyme B with IEPD-AMC” value (human granzyme B [4]; 15.000 cells versus 25.000 cells) was “about 1.7 times”, the “Fluorescence of Caspase-3 only” value (human granzyme B [4]; no granzyme B, DEVD-AMC, background 2775 subtracted) was 15775 and the “signal to background (S/B)” value (human granzyme B [4]; supernatant equivalent to 15.000 cells, DEVD-AMC) was 2.8. The “Fluorescence of caspase-3 treated with granzyme B” value (human granzyme B [4]; supernatant equivalent to 15.000 ionomycin treated cells, DEVD-AMC, background 2775 subtracted) was 43548.

B2: Rat granzyme B: Granzyme B of rat (NM_138517) used as granule stored reporter (protein, UniProt P18291 21-248, looked up)
Granzyme B: IIGGHEAKPHSRPYMAYLQIMDEYSGSKKCGGFLIREDFVLTAAHCSGSKINVTLGAHNIKEQEKMQQIIPVVKIIPHPAYNSKTISNDIMLLKLKSKAKRSSAVKPLNLPRRNVKVKPGDVCYVAGWGKLGPMGKYSDTLQEVELTVQEDQKCESYLKNYFDKANEICAGDPKIKRASFRGDSGGPLVCKKVAAGIVSYGQNDGSTPRAFTKVSTFLSWIKKTMKKS
With B2 the “Fluorescence of supernatant from cells treated with ionomycin” value (RBL-2H3 cells [3]) was 22,000 and the signal to background (RBL-2H3 cells [3]) was 11.
